Measurements as given in paper PMC8837617.

Biological target: MAPK ERK2 (human), P28482
Experiment: FP
Conditions: modification not given

Sequence of MAPK ERK2 (human), P28482 (P28482 whole entry): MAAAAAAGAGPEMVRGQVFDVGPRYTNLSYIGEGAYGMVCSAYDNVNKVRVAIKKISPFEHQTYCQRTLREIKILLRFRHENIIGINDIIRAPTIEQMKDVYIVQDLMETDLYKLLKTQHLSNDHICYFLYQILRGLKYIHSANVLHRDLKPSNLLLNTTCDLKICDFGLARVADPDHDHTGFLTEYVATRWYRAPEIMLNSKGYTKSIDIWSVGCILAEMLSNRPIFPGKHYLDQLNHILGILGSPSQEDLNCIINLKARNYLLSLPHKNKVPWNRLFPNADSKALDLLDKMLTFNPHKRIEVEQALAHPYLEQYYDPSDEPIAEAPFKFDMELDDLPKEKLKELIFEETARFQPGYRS

| Ki | Binder |
| --- | --- |
| 65 µM | SKGKKRNPGLKIPK [MKK6] |
| 431 µM | QGKRKALKLNFANP [MKK4] |
